Data set [1] deals with T1, mΔIAPP (Mus musculus, UniProt P12968).
T1 construct: purchased Pepscan, Inc. or peptide synthesis facility of the Netherlands Cancer Institute; host or cells: chemical synthesis
In words: Dot blot: binding of FXII to mΔIAPP. The conditions noted are these: 2 nM FXII. On the procedure: (§1) The binding of human FXII (Calbiochem, La Jolla, Calif., USA, catalogue #233490) to amyloid (poly)peptides was tested. Prototype amyloid peptides human amyloid-β (1-40) (hAβ (1-40)) and human fibrin fragment α147-159 FP13, and glucose-6-phosphate glycated bovine albumin (albumin-advanced glycation end product (AGE)) and glucose-6-phosphate glycated human hemoglobin (Hb-AGE), all containing cross-β structure, as well as negative controls mouse A islet amyloid polypeptide (ΔmIAPP), albumin-control and Hb-control, all three lacking the amyloid-specific structure, were coated to ELISA plates and overlayed with a concentration series of human factor XII. Binding of FXII was detected using a rabbit polyclonal anti-FXII antibody (Calbiochem, La Jolla, Calif., USA, catalogue #233504) and peroxidase-labeled swine anti-rabbit IgG. Wells were coated in triplicate. The FXII binding buffer included 10 mM HEPES pH 7.3, 137 mM NaCl, 11 mM D-glucose, 4 mM KCl, 1 mg ml^−1 albumin, 50 μM ZnCl2, 0.02% (m/v) NaN3 and 10 mM ε-amino caproic acid (εACA). Lysine analogue εACA was added to avoid putative binding of FXII to cross-β structure via the FXII kringle domain. In addition, binding of FXII to hAβ (1-40) and the prototype amyloid human amylin fragment hΔIAPP was tested using dot blot analysis. […]

Data set [2] deals with T2, hAβ (1-40) (Homo sapiens, UniProt P05067).
T2 construct: Peptide Aβ (1-40), containing amino acids as present in the described human Alzheimer peptide; purchased Pepscan, Inc. or peptide synthesis facility of the Netherlands Cancer Institute; host or cells: chemical synthesis
T2 sequence (P05067 672-711): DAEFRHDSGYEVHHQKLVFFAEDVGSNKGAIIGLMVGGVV
Nature of the data set: Dot blot: binding of FXII to hAβ (1-40). The conditions noted are these: 2 nM FXII. On the procedure:
as §1

In data set [3] the target is T3, human amylin fragment hΔIAPP (Homo sapiens, UniProt P10997).
T3 construct: purchased Pepscan, Inc. or peptide synthesis facility of the Netherlands Cancer Institute; host or cells: chemical synthesis
Nature of the data set: Dot blot: binding of FXII to hΔIAPP. The settings on record: 2 nM FXII. On the procedure:
as §1

For data set [4], the system named is ΔmIAPP, albumin-control and Hb-control. Nature of the data set: ELISA: binding of human FXII to negative controls. The method, then:
as §1
A general note: In an ELISA, binding on a coated surface is turned into a signal by an enzyme label.

Data set [5] addresses T4, tPA-mediated plasminogen activation (Homo sapiens, UniProt P00750).
T4 construct: purchased Boehringer-Ingelheim (Germany)
Nature of the data set: Plasminogen activation assay. It counts as biochemical. The conditions noted are these: plasminogen 200 μg ml−1, tPA 200 pM, 5 μM co-factor; S-2251. The method, then:
Plasminogen (200 μg ml^−1) was incubated with tPA (200 pM) in the presence or the absence of a co-factor (5 μM of either endostatin, Aβ (1-40), or one the fibrin-derived peptides 85, 86 and 87). At the indicated time intervals, samples were taken and the reaction was stopped in a buffer containing 5 mM EDTA and 150 mM εACA. After collection of the samples, a chromogenic plasmin substrate S-2251 was added and plasmin activity was determined kinetically in a spectrophotometer at 37° C.

Data set [6] deals with neuronal cell death. Nature of the data set: Endostatin-induced cell death by methylene blue staining. It counts as cell-based. The settings on record: precipitated form. The text has this: FIG. 6 is a set of graphs illustrating that endostatin can form fibers comprising cross-β structure and stimulates plasminogen activation. […] Aβ is shown for comparison. Panel D is an analysis of endostatin-induced cell death by methylene blue staining. […] Direct cell death, but not cell detachment, is protected in the presence of sufficient glucose. Buffer prec. indicates control buffer.

Data set [7] addresses T5, H-43 binding to immobilized IAPP (Homo sapiens, UniProt P10997).
T5 construct: purchased Pepscan, Inc. (The Netherlands) or peptide synthesis facility at the Netherlands Cancer Institute; host or cells: synthetic peptide
T5 sequence (P10997 34-70 limits assumed): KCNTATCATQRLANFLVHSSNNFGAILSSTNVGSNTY
Nature of the data set: Competitive ELISA: tPA and H-43 on immobilized IAPP. The settings on record: 100 nM H-43, concentration series of tPA. The method, then:
(§2) For ELISAs, amyloid compounds were immobilized on Exiqon peptide or protein Immobilizers (Vedbaek, Denmark), as described before. Anti-AGE antibodies and commercially available anti-Aβ (1-42) H-43 (Santa Cruz Biotechnology, Santa Cruz, Calif., USA) were diluted in PBS with 0.1% v/v Tween 20. Rabbit anti-human vitronectin K9234 was a kind gift of Dr. H. de Boer (UMC Utrecht) and was used as a negative control. For ELISAs with mouse polyclonal anti-albumin-AGE/Aβ, control serum with antibody elicited against an unrelated protein was used. Binding of mouse polyclonal anti-albumin-AGE/Aβ was performed using a dilution series of serum in PBS/0.1% Tween 20. For competitive binding assays with IAPP, anti-AGE1 was pre-incubated with varying IAPP concentrations. The IAPP fibers were spun down and the supernatant was applied in triplicate to wells of an ELISA plate coated with Aβ. Competitive binding assays with multiligand cross-β structure binding serine protease tPA were performed in a slightly different way. Coated Aβ and IAPP are overlayed with an anti-AGE1 or anti-Aβ (1-42) H-43 concentration related to the kD, together with a concentration series of tPA. A 10^7-10^4 times molar excess of lysine analogue εACA (10 mM) was present in the binding buffer in order to avoid binding of tPA to lysine residues of Aβ and IAPP, which would be independent of the presence of amyloid structures.

For data set [8], the target named is T6, FXII binding to hAβ (1-40) (Homo sapiens, UniProt P05067).
T6 construct: Peptide Aβ (1-40), containing amino acids as present in the described human Alzheimer peptide; purchased Calbiochem (FXII); Pepscan or Netherlands Cancer Institute (peptide) 233490 (FXII)
T6 sequence (P05067 672-711): as the sequence (P05067 672-711) above
In words: Competitive FXII - tPA ELISA on coated hAβ (1-40). The conditions noted are these: 2.5 nM FXII; concentration series up to 135 times the kD.

Data set [9] has as its target T7, albumin-g6p (Bos taurus, UniProt P02769).
T7 construct: Bovine serum albumin (BSA) fraction V pH 7.0; host or cells: bovine serum, fraction V
In words: Competitive binding of Thioflavin T and tPA to albumin-g6p (fluorescence, absorbance). The conditions noted are these: increasing amounts of tPA. Also noted: species or system bovine. On the procedure:
A solution of 430 nM albumin-g6p and 19 μM of Thioflavin T was incubated with increasing amounts of tPA, for one hour at room temperature. For blank readings, albumin-g6p was omitted. Samples were prepared in four-fold in 50 mM glycine-NaOH pH 9. Emission measurements were performed as described above.
Albumin-g6p (500 nM) and Thioflavin T (10 μM) were incubated with increasing amounts of tPA, in 50 mM glycine-NaOH pH 9, for one hour at room temperature. Absorbance measurements were performed at the albumin-g6p Thioflavin T absorbance maximum at 420 nm. Samples were prepared in four-fold. For blank readings, albumin-g6p was omitted in the solutions. Absorbance was read in a quartz cuvette on a Pharmacia Biotech Ultrospec 3000 UV/visible spectrophotometer (Cambridge, England).

Data set [10] deals with T8, FXII binding to albumin-AGE (Bos taurus, UniProt P02769).
T8 construct: bovine serum albumin (fraction V, catalogue #A-7906); purchased Calbiochem (FXII); ICN or Sigma-Aldrich (albumin) 233490 (FXII); A-7906 (Sigma albumin)
T8 sequence (P02769 25-607): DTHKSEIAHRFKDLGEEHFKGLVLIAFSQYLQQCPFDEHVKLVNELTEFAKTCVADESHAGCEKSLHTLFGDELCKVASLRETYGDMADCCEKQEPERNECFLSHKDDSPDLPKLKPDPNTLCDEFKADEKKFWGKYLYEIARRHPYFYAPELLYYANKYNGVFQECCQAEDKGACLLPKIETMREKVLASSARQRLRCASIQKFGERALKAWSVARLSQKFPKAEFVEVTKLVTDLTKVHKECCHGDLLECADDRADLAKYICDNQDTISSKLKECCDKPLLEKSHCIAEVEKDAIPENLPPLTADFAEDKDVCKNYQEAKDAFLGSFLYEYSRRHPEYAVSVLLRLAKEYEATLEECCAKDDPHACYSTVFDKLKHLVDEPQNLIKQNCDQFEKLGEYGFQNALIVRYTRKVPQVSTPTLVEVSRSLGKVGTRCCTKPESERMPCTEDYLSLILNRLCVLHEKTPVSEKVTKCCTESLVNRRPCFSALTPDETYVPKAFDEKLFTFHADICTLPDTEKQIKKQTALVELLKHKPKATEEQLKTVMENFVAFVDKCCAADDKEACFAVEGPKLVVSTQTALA
In words: Competitive FXII - tPA ELISA on coated albumin-AGE. The conditions noted are these: 15 nM FXII; concentration series up to 150 times the kD.

Data set [11] has as its system anti-AGE1 binding to amyloid peptides (Aβ (1-40), IAPP). In words: Competitive ELISA: tPA and anti-AGE1 on immobilized Aβ (1-40) and IAPP. The conditions noted are these: 250 or 18 nM α-AGE1; 10 mM εACA. On the procedure:
as §2

Data set [12] has as its target T1, mΔIAPP. In words: Amyloid ELISA with tPA F-EGF-GST: non-amyloid control. The class given is binding. The method, then: In order to define the affinity of the purified tPA F-EGF-GST recombinant protein, ELISAs were performed with immobilized amyloid (poly)peptides and non-amyloid control ΔmIAPP. Twenty-five μg ml^−1 of Aβ, FP13, IAPP or ΔmIAPP was immobilized on Exiqon peptide immobilizer plates. A concentration series of tPA F-EGF-GST in the presence of excess εACA was added to the wells and binding was assayed using anti-GST antibody Z-5. As a control, GST (Sigma-Aldrich, St. Louis, Mo., USA, catalogue #G-5663) was used at the same concentrations.

Data set [13] concerns the target T9, Aβ (Homo sapiens, UniProt P05067).
T9 construct: Peptide Aβ (1-40), containing amino acids as present in the described human Alzheimer peptide; purchased Pepscan, Inc. or peptide synthesis facility of the Netherlands Cancer Institute; host or cells: chemical synthesis
Nature of the data set: Solid-phase binding ELISA of tPA, plasminogen and plasmin to coated Aβ. The conditions noted are these: 50 mM ε-aminocaproic acid. The method, then:
FIG. 3 is a set of graphs depicting binding of tPA, plasminogen and plasmin to Aβ. Aβ was coated onto plastic 96-well plates. Increasing concentrations of either (A) tPA or (B) plasmin(ogen) were allowed to bind to the immobilized peptide. After extensive washing, tPA and plasmin(ogen) binding was assessed by enzyme-linked immunosorbent assays using anti-tPA and anti-plasminogen antibodies. Binding of (C) tPA and (D) plasmin to Aβ in the presence of 50 mM ε-aminocaproic acid (ε-ACA) was assessed as in A and B.
To test whether tPA, plasminogen and plasmin bind Aβ, solid-phase binding assays were performed. Aβ was coated onto plastic 96-well plates and binding of the peptide to either plasmin(ogen) or to tPA was assessed by overlaying the coated peptide with increasing concentrations of either tPA, plasminogen or plasmin. Binding was assessed using specific antibodies to either plasmin(ogen) or to tPA by performing ELISA. […] However, activated plasminogen (plasmin) does bind to Aβ and does so with a kD of 47 nM. […] To test this, use was made of the lysine analogue ε-aminocaproic acid (εACA) and binding of plasmin and tPA to Aβ was tested in its presence. […] In contrast, εACA has no effect on the tPA-Aβ interaction (FIG. 3, Panel C). Thus, it was concluded that plasmin binds to free lysines that were generated during the incubation period, presumably via its lysine-binding Kringle domain(s). In line with this, the kD of plasminogen Kringle domain binding to free lysines in fibrin is similar to the kD for plasmin binding to Aβ.

The target in data set [14] is Aβ (1-40) (Homo sapiens, UniProt P05067). In words: ELISA: binding of tPA-F-GST and RPTPμ-GST to human Aβ (1-40). Also noted: Peptide Aβ (1-40), containing amino acids as present in the described human Alzheimer peptide; purchased Pepscan, Inc. (The Netherlands) or peptide synthesis facility at the Netherlands Cancer Institute; host or cells: synthetic peptide. The conditions noted are these: in the presence of excess εACA. The method, then:
(§3) Binding of tPA-F-GST and RPTPμ-GST to fibrous amyloids human Aβ (1-40) and albumin-[…] was assayed with an ELISA. In brief, human Aβ (1-40), albumin-[…], or buffer only, were coated on a peptide I Immobilizer or a protein I Immobilizer, respectively. Wells were incubated with the purified GST-tagged constructs or control medium and binding was detected using primary anti-GST monoclonal antibody 2F3 and RAMPO. The wells were also incubated with […] of tPA in the presence of 10 mM of εACA. Binding of tPA is independent of the lysyl binding site located at the kringle 2 domain. Binding of tPA was measured using primary antibody 374B and RAMPO. Experiments were performed in triplicate and blank readings of non-coated wells were substracted.

For data set [15], the target named is T7, albumin-g6p. In words: ELISA: binding of tPA-F-GST and RPTPμ-GST to glycated albumin. Also noted: species or system bovine. The conditions noted are these: in the presence of excess εACA. On the procedure:
as §3

T7 sequence (P02769 25-607): as above
Chain of Aβ (1-40) (P05067 672-711): as the sequence (P05067 672-711) above
T9 sequence (P05067 672-711): as above
T4 sequence (P00750 36-562): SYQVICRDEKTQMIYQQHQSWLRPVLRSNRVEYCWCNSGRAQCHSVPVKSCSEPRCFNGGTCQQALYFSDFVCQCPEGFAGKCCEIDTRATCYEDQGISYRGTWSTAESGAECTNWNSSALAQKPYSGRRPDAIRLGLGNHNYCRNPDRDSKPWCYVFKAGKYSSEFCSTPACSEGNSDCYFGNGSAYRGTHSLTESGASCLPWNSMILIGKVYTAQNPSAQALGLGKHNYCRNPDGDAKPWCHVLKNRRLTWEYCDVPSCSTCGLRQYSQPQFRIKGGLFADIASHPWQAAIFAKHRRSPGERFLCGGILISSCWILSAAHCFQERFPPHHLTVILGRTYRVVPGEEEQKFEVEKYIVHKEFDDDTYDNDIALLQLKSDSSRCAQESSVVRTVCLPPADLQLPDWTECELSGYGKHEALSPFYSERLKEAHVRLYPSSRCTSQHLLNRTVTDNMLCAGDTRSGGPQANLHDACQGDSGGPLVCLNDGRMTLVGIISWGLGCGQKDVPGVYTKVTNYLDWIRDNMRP

Turning to “FXII: human FXII (Calbiochem, catalogue #233490)”, the “binding to spotted mΔIAPP” value in [1] is “No binding”. For the same substance, the “binding to spotted hAβ (1-40)” value in [2] is listed as “specifically bound”. In addition, the “binding to spotted hΔIAPP” value in [3] is “specifically bound”. In addition, the “binding to negative controls ΔmIAPP, albumin-control and Hb-control” value in data set [4] is listed as “does not bind”.
With endostatin, the “stimulation of tPA-mediated plasmin formation” value in data set [5] is listed as “stimulating activity”. Moreover, in [6], the “induction of cell death” value is recorded as “capable of efficiently inducing cell death”.
For “tPA: Alteplase (recombinant tissue-type plasminogen activator, tPA) from Boehringer-Ingelheim”, the “inhibition of H-43 binding to immobilized IAPP” value in [7] is reported as “effectively diminished”. Besides, the “inhibition of FXII binding to hAβ (1-40)” value in data set [8] is on record as “efficiently inhibits”. Further, the “competition with binding of Thioflavin T to glycated albumin” value in data set [9] was “competed”. Further, the “inhibition of FXII binding to albumin-AGE” value in [10] is “effectively abolished”. Also, the “inhibition of anti-AGE1 binding to amyloid peptides” value in data set [11] is listed as “inhibited”. The “binding to non-amyloid mΔIAPP” value in data set [12] is recorded as “No binding”. The “binding to Aβ in the presence of εACA” value in data set [13] was “no effect”. Moreover, the “binding of control tPA to human Aβ (1-40)” value in data set [14] is given as “bound”. In data set [15], the “binding of control tPA to albumin-g6p” value is listed as “bound”.

The values are drawn from US8158585B2, “Cross-β structure comprising amyloid-binding proteins and methods for detection of the cross-β structure, for modulating cross-β structures fiber formation and modulating cross-β structure-mediated toxicity” (CrossBeta Biosciences B.V., priority 2002, dated 2012).
